In PMC8003079, “Virus-Like Particles Produced Using the Brome Mosaic Virus Recombinant Capsid Protein Expressed in a Bacterial System” (International Journal of Molecular Sciences, 2021):
Positions count from the first letter of the chain named. Numbers in names are those of the source.

B1: recombinant brome mosaic virus (BMV) capsid protein (natural protein)
chain: MSTSGTGKMTRAQRRAAARRNRWTARVQPVIVEPLAAGQGKAIKAIAGYSISKWEASSDAITAKATNAMSITLPHELSSEKNKELKVGRVLLWLGLLPSVAGRIKACVAEKQAQAEAAFQVALAVADSSKEVVAAMYTDAFRGATLGDLLNLQIYLYASEAVPAKAVVVHLEVEHVRPTFDDFFTPVYR
notes: brome mosaic virus capsid (coat) protein; In the MST assay one copy was labelled with Monolith NT Protein Labeling Kit RED-NHS 647 and titrated with unlabelled rCP; also called rCP; CP; source: E. coli Rosetta 2(DE3)pLysS, purified (Ni-NTA, TEV digestion, second Ni-NTA); not shown: His tag (inferred from Ni-NTA purification; vector pMCSG48), N-terminal, cleaved
B2: mutated BMV capsid protein (L123D and F183T) (natural protein, brome mosaic virus)
chain: B1 chain with L123D, F183T
notes: brome mosaic virus capsid (coat) protein with two designed mutations; also called rCP mutant; mutated rCP; source: E. coli Rosetta 2(DE3)pLysS, purified as the wild-type BMV CP (Ni-NTA, TEV digestion, second Ni-NTA); not shown: His tag (inferred from Ni-NTA purification; vector pMCSG48), N-terminal, cleaved

Key:
[1] = biological target: the molecule itself; test: MST; labelled rCP (RED-NHS 647, 50 nM) titrated with unlabelled rCP (from 15 uM); 50 mM Tris pH 7.5, 5 mM MgCl2, 600 mM NaCl; step of self-association not stated
[2] = biological target: the molecule itself; test: cross-linking; 5 mM DSS, rCP in MST buffer pH 7.5; 5, 10, 15 and 30 min; SDS-PAGE
[3] = biological target: the molecule itself; test: MST; labelled rCP (RED-NHS 647, 50 nM) titrated with unlabelled rCP (from 15 uM); 50 mM Tris pH 6.8, 5 mM MgCl2, 150 mM NaCl; step of self-association not stated
[4] = biological target: the molecule itself; test: MST; labelled rCP (RED-NHS 647, 50 nM) titrated with unlabelled rCP (from 15 uM); 50 mM Tris pH 7.5, 5 mM MgCl2, 300 mM NaCl; step of self-association not stated
[5] = biological target: the molecule itself; test: MST; labelled rCP (RED-NHS 647, 50 nM) titrated with unlabelled rCP (from 15 uM); 50 mM Tris pH 7.5, 5 mM MgCl2, 1000 mM NaCl; step of self-association not stated
[6] = biological target: the molecule itself; test: MST; labelled rCP (RED-NHS 647, 50 nM) titrated with unlabelled rCP (from 15 uM); 50 mM Tris pH 7.5, 5 mM MgCl2, 150 mM NaCl; step of self-association not stated
[7] = biological target: the molecule itself; test: MST; labelled rCP (RED-NHS 647, 50 nM) titrated with unlabelled rCP (from 15 uM); 50 mM Tris pH 8.5, 5 mM MgCl2, 150 mM NaCl; step of self-association not stated
[8] = biological target: the molecule itself; test: cryo-TEM imaging; empty VLPs assembled without cargo by two-step dialysis; vitrified samples, 120 kV

Protein | Kd [1] [nM] | stoichiometry N [2] | Kd [3] [nM] | Kd [4] [nM] | Kd [5] [nM] | Kd [6] [nM] | Kd [7] [nM] | binding result [8]
B1 | 72 | 2 | 6.8 | 62 | 111 | 35 | 175 | –
B2 | – | – | – | – | – | – | – | binds
